Measured values as given in the supplement of paper PMC10567573.
± gives the standard deviation.

Assay: protein stability index of a GFP-peptide fusion (GPS, HEK-293T) (PSI 1-6); higher = more stable
[1] = treatment: DMSO, c terminus: a fixed tail appended
[2] = treatment: MLN4924 1 uM, 8 h, c terminus: a fixed tail appended
[3] = treatment: DMSO, c terminus: native
[4] = treatment: MLN4924 1 uM, 8 h, c terminus: native
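Further: 24-mer peptide tiles fused after GFP, lentivirally expressed, FACS-sorted into six equal bins by GFP/DsRed ratio, decoded by Illumina sequencing, PSI is the read-weighted mean bin number.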

| Sequence | protein stability index [1] | protein stability index [2] | protein stability index [3] | protein stability index [4] |
| --- | --- | --- | --- | --- |
| GFWETIFGNRIKRVKLISNKGTET [PHTF1] | 1.6 ± 0.16 | 2.74 ± 0.053 |  |  |
| GGCTVGVAGEGVRRKGEMGLSAED [TRIM15] | 4.98 ± 0.46 | 5.21 ± 0.37 |  |  |
| GGGGLHSVGTYIIDLLTFLTGQKA [GFOD1] | 2.1 ± 0.31 | 1.98 ± 0.36 |  |  |
| GGRRRPPASSRNRSPSGSLRSARG [RBMY1A1] | 5.16 ± 0.28 | 5.2 ± 0.18 |  |  |
| GGTSVGSLGVPGSVGGVPGGTGSG [ZBTB22] | 4.41 ± 0.29 | 4.76 ± 0.088 |  |  |
| GHSLKNLEHRLNEMERTQAQLRDA [RASAL3] | 4.51 ± 0.24 | 4.58 ± 0.22 |  |  |
| GIIRCPDGISIPELREACDYLCIS [BTBD10] | 2.36 ± 0.35 | 2.5 ± 0.2 |  |  |
| GILRARRGEGIQAPSFSSYLYFLF [SOAT2] | 2.29 ± 0.31 | 2.11 ± 0.28 |  |  |
| GKETMCTVDGLHFNSTYNARVKAF [TRIM9] | 3.1 ± 0.37 | 3.08 ± 0.23 |  |  |
| GKHITVFKTYISPWERAMGVDPQQ [MYOZ1] | 2.33 ± 0.27 | 2.18 ± 0.46 |  |  |
| GKYNAMVLELLGPSLEDLFDLCDR [CSNK1G3] | 2.92 ± 0.28 | 2.18 ± 0.28 |  |  |
| GLDSISHDSANCELPLLTPCSKAV [ETS2] | 4.47 ± 0.076 | 4.55 ± 0.28 |  |  |
| GLEALAGGDLMPAPADPTAREGLA [FCHO1] | 5.2 ± 0.15 | 5.23 ± 0.21 |  |  |
| GLEGLFEDIDTSMYDNELWAPASE [SERTAD1] | 3.79 ± 0.05 | 3.81 ± 0.29 |  |  |
| GLKPNSLYYFRLAARSPQGLGAST [PTPRD] | 1.89 ± 0.099 | 2.85 ± 1 |  |  |
| GLLKYCSLLVHGFKPACMSEIKNL [TENT5D] | 3.48 ± 0.69 | 2.59 ± 1.2 |  |  |
| GLMSFIGNRNKLGYSLARGSIGF [TPRG1] |  |  | 2.67 ± 0.39 | 2.5 ± 0.97 |
| GLTLGRSFSNYRPFEPQALGLSPS [SEPHS2] | 2.78 ± 0.36 | 2.81 ± 0.49 |  |  |
| GPQTPKACDSKLTFDAITTIRGEV [MMP1] | 3.69 ± 0.28 | 3.66 ± 0.25 |  |  |
| GQESEVPYKREEEALEERRLSRGE [PKD2L1] | 5.39 ± 0.14 | 5.53 ± 0.15 |  |  |
| GQRQLMVPARDGTSCKLTDLRGVC [ADAMTSL2] | 3.08 ± 0.28 | 3.01 ± 0.16 |  |  |
| GRVSKQASQPVKKQQENATSCSLE [WDR41] | 5.22 ± 0.1 | 5.29 ± 0.16 |  |  |

| Sequence | protein stability index [1] | protein stability index [2] | protein stability index [3] | protein stability index [4] |
| --- | --- | --- | --- | --- |
| GSACSLLCCCGRDPSEEHSLLVN [MCOLN1] |  |  | 2.3 ± 0.39 | 2.27 ± 0.38 |
| GSDTGASLKLASSELERLIVPNSN [JUNB] | 4.31 ± 0.057 | 4.15 ± 0.17 |  |  |
| GSELRDFPGRPMGHLSKDVDENDS [DLC1] | 5.63 ± 0.24 | 5.51 ± 0.17 |  |  |
| GTGGEEVEALQLSARWLEVLRTYL [FBXO33] | 2.41 ± 0.23 | 2.32 ± 0.31 |  |  |
| GVLRPTVRPGTPPDFILKVVIDKH [CTDNEP1] | 2.73 ± 0.35 | 2.67 ± 0.2 |  |  |
| GYHQVPGSAAPGSPLAADPACLGQ [FOXJ1] | 4.46 ± 0.22 | 4.29 ± 0.18 |  |  |
| GYTFDYAYDWVGRPIPTPVGSVHV [CSNK1G1] | 2.13 ± 0.44 | 2.14 ± 0.4 |  |  |
| HAPKIGSNGVEMAAKFPSGSQRAR [SDE2] | 4.56 ± 0.13 | 4.62 ± 0.19 |  |  |
| HDLIFWRDVKKTGFVFGTTLIMLL [RTN3] | 2.81 ± 0.37 | 2.66 ± 0.49 |  |  |
| HEKTVDIYGHVTLMRAQRNYMVQT [PTPRD] | 2.32 ± 0.4 | 2.18 ± 0.43 |  |  |
| HPDSPATGAHWMRQPVSFHRVKLT [TBX6] | 3.16 ± 0.16 | 3.23 ± 0.32 |  |  |
| HPTYEEKLKLVALHKQVLMGPYNP [ACBD3] | 2.6 ± 0.34 | 2.69 ± 0.37 |  |  |
| HSFNFVLSANLHGGAVVANYPYDK [CPN1] | 2.19 ± 0.44 | 2.4 ± 0.2 |  |  |
| HSSSRDSHLSNGLDPVAETAIRQL [C2CD2L] | 4.42 ± 0.35 | 4.53 ± 0.18 |  |  |
| HVGELIIWDALDWTMQAYERNFWD [WDR41] | 2.33 ± 0.26 | 2.25 ± 0.26 |  |  |
| HWDLAELLPNQSHGNQSAGEDQAF [SLC22A15] | 4.85 ± 0.28 | 4.8 ± 0.28 |  |  |
| HYCNSSTDRRVLLMFLDICSELNK [SPACA9] | 2.18 ± 0.35 | 2.21 ± 0.29 |  |  |
| HYDRNKDGNKDVYLSLLRMYLSPP [VPS39] | 2.29 ± 0.14 | 2.16 ± 0.18 |  |  |
| HYIAGAHGNEVLGRELLLLLVQFV [CPXM2] | 2 ± 0.075 | 2.22 ± 0.37 |  |  |
| IAHDFPGIGHKVDAVFMKDGFFYF [MMP1] | 2.41 ± 0.69 | 2.27 ± 0.16 |  |  |
| IAKELSKTYQETPEIDMFLNVATF [ZBED1] | 2.07 ± 0.24 | 2.12 ± 0.16 |  |  |
| ICPSTFACAQLATGAACRLVEAVL [HDAC6] | 2.17 ± 0.32 | 2.14 ± 0.049 |  |  |

| Sequence | protein stability index [1] | protein stability index [2] | protein stability index [3] | protein stability index [4] |
| --- | --- | --- | --- | --- |
| IDLSHVTSKCGSLKNIRHRPGGGR [MAP2] | 3.18 ± 0.15 | 3.35 ± 0.3 |  |  |
| IDVSNPQTVGVGRGRFTTYEIRVK [SNX3] | 2.56 ± 0.25 | 2.69 ± 0.35 |  |  |
| IEPLVPEEKMETKTESSGIETEPT [EPB41L3] | 5.45 ± 0.31 | 5.46 ± 0.51 |  |  |
| IGNPPVGPIGGMMPPQPGIPQQQG [ZNF207] | 4.62 ± 0.28 | 4.53 ± 0.21 |  |  |
| IIKTEKVDLELFPSPDMECADVPL [ETS1] | 3.99 ± 0.19 | 3.97 ± 0.22 |  |  |
| IITVTLNMEKYNFLGISIVGQSNE [DVL3] | 3.15 ± 0.69 | 3.04 ± 0.4 |  |  |
| IKEVVEKREACHCEEVKMTVASEA [FAN1] | 4.89 ± 0.25 | 4.95 ± 0.17 |  |  |
| IKSVKESLQESVEDSLATVKVVLI [IQUB] | 2.27 ± 0.66 | 2.44 ± 0.32 |  |  |
| ILAVSFAPLIQPCHSESGKSRLVQ [PCMTD2] | 2.23 ± 0.59 | 1.93 ± 0.25 |  |  |
| ILDDGTISAHKPLLISSCDWMAAM [RHOBTB2] | 2.29 ± 0.24 | 2.12 ± 0.19 |  |  |
| ILDLSCNKLTTLPSDFCGLTHLVK [LRRC59] | 2.02 ± 0.38 | 2.09 ± 0.022 |  |  |
| ILELLVLEQFLAILPKELQAWVQK [ZNF396] | 2.67 ± 0.24 | 2.65 ± 0.5 |  |  |
| ILGPAYFVTYVFFVFFVLLNMFLA [PKD2L1] | 2.88 ± 0.45 | 3.22 ± 0.3 |  |  |
| ILGPVVGGYLTELEDGFYLTAFIC [MFSD9] | 2.99 ± 0.34 | 3.05 ± 0.88 |  |  |
| ILLSWTPPRSDTIANYELVYKDGE [PTPRD] | 2.03 ± 0.41 | 2.23 ± 0.42 |  |  |
| ILNLTQALKDNKSPLHLVQMPPVI [PI4K2A] | 2.54 ± 0.27 | 2.35 ± 0.23 |  |  |
| ILPKELQTWVRDHHPENGEEAVTV [ZNF24] | 3.92 ± 0.17 | 4.17 ± 0.25 |  |  |
| ILSFTVIMVGFILYCSTPTRTAEP [SLC35F2] | 3.27 ± 0.65 | 2.77 ± 0.53 |  |  |
| IMATLGFGDSPKAEKRQIGDQEGP [FBF1] | 4.37 ± 0.17 | 4.3 ± 0.12 |  |  |
| IPGFKFDNSLINQIENLNIQVEDI [LOXL2] | 3.51 ± 0.18 | 3.37 ± 0.38 |  |  |
| IPKLTPGDNPYMYPEQSKGFHKAG [SPATS1] | 3.97 ± 0.28 | 3.84 ± 0.25 |  |  |
